Test results published in publication PMC4159615 (Developmental cell, 2014).
Residue numbers refer to the chain shown, from its start. Numbers in names are those of the source. Blank lines part the entries; values can stand above or below the binder they belong to.

Tests used:
[1] = molecular target: T1, Chs5(1-299)-T92Y/Bch1-N692I exomer complex (S. cerevisiae (yeast), UniProt Q12114 1-299; Q05029 1-724, T92Y | N692I); experiment: co-sedimentation
T1 sequence 1: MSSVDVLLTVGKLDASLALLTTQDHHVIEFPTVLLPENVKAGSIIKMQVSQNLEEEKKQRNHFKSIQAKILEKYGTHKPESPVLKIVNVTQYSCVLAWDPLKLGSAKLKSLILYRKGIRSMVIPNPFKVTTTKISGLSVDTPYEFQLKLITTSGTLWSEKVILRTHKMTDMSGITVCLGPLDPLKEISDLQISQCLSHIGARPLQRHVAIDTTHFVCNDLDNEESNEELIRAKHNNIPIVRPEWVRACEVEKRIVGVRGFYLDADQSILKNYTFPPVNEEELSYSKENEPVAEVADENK
T1 sequence 2: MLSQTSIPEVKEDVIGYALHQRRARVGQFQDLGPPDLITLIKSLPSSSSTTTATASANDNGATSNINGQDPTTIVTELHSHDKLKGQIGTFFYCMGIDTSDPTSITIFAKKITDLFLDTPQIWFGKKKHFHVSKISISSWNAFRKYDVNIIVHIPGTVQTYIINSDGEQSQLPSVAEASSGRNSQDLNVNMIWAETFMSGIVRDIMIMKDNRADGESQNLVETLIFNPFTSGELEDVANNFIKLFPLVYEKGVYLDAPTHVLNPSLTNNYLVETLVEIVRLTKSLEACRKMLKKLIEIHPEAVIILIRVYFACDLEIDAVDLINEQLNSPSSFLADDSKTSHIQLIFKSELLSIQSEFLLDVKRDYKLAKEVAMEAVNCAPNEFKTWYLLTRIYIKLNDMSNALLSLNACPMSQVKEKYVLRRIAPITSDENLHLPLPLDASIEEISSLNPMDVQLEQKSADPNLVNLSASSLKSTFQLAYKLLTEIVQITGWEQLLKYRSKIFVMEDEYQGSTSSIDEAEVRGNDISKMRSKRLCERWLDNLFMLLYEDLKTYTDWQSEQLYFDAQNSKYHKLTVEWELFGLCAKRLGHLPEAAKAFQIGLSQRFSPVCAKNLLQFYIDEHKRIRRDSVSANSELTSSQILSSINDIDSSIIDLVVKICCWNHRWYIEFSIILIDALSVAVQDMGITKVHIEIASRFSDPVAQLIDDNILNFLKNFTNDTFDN

[2] = molecular target: T2, Chs5(1-299)/Chs6 exomer complex (S. cerevisiae (yeast), UniProt Q12114 1-299; P40955 1-746); experiment: co-sedimentation
T2 sequence (looked up) 1: T1 sequence 1 with Y92T
T2 sequence (looked up) 2: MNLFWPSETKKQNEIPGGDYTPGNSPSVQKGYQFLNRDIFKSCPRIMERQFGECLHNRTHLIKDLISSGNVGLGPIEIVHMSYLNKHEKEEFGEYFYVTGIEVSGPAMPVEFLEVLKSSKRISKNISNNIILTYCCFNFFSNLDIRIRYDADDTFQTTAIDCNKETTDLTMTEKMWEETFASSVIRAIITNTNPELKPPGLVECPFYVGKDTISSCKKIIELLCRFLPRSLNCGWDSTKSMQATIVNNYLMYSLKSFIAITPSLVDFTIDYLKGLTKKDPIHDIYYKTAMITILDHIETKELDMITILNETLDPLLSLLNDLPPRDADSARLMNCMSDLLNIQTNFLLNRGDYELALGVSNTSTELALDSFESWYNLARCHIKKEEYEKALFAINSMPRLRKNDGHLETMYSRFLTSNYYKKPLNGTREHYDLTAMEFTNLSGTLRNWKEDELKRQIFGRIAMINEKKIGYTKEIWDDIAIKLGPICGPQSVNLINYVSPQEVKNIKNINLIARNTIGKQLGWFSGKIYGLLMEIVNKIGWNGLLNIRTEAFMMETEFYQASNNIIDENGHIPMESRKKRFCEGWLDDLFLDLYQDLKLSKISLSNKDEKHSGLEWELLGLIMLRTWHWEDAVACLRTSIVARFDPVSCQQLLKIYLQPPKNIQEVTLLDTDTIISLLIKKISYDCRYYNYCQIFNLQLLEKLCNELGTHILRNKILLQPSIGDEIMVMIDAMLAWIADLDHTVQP

[3] = molecular target: T3, Chs5(1-299)/Bch1 exomer complex (S. cerevisiae (yeast), UniProt Q12114 1-299; Q05029 1-724); experiment: co-sedimentation
T3 sequence 1: T1 sequence 1 with Y92T
T3 sequence 2: T1 sequence 2 with I692N

[4] = molecular target: T4, Chs5(1-299)/Bch1-N692I exomer complex (S. cerevisiae (yeast), UniProt Q12114 1-299; Q05029 1-724, N692I); experiment: co-sedimentation
T4 sequence 1: T1 sequence 1 with Y92T
T4 sequence 2: T1 sequence 2

[5] = molecular target: T5, Chs5(1-299)-T92Y/Bch1 exomer complex (S. cerevisiae (yeast), UniProt Q12114 1-299; Q05029 1-724, T92Y); experiment: co-sedimentation
T5 sequence 1: T1 sequence 1
T5 sequence 2: T1 sequence 2 with I692N

[6] = molecular target: T3, Chs5(1-299)/Bch1 exomer complex; experiment: crystal structure
[7] = molecular target: T6, Bch1 (S. cerevisiae (yeast), UniProt Q05029 1-724); experiment: crystal structure
T6 sequence: T1 sequence 2 with I692N

[8] = molecular target: the molecule itself; experiment: crystal structure

- stoichiometry N [6]: 2
- binding result [7]: binds
B3: ΔN17-Arf1-Q71L bound to GMPPNP (domain or fragment, S. cerevisiae (yeast), UniProt P11076 18-181, looked up)
chain: MRILMVGLDGAGKTTVLYKLKLGEVITTIPTIGFNVETVQYKNISFTVWDVGGLDRIRSLWRHYYRNTEGVIFVVDSNDRSRIGEAREVMQRMLNEDELRNAAWLVFANKQDLPEAMSAAEITEKLGLHSIRNRPWFIQATCATSGEGLYEGLEWLSNSLKNST

- binding result [7]: binds
B4: Chs5 (residues 1-299) (domain or fragment, S. cerevisiae (yeast), UniProt Q12114 1-299, looked up)
chain: T1 sequence 1 with Y92T
- binding result [8]: binds

Further lines, the binder ahead of its results:

B1: myristoylated Arf1 (wild type), GTP-bound, anchored on liposomes (natural protein, yeast, UniProt P11076 1-181, looked up)
chain: MGLFASKLFSNLFGNKEMRILMVGLDGAGKTTVLYKLKLGEVITTIPTIGFNVETVQYKNISFTVWDVGGQDRIRSLWRHYYRNTEGVIFVVDSNDRSRIGEAREVMQRMLNEDELRNAAWLVFANKQDLPEAMSAAEITEKLGLHSIRNRPWFIQATCATSGEGLYEGLEWLSNSLKNST
modifications: myristoylated
- binding result [1]: binds
- binding result [2]: binds
- binding result [3]: binds
- binding result [4]: binds
- binding result [5]: binds

B2: myristoylated Arf1-S98Y (natural protein, yeast, UniProt P11076 1-181, looked up)
chain: B1 chain with S98Y
modifications: myristoylated
- binding result [3]: binds
